Measured values reported in patent US20200262917A1 (Daiichi Sankyo, published 2020).

Target: T1, human LAG-3 (full length, expressed on cells) (human, UniProt P18627 23-525)
T1 construct: also called CD223; hLAG-3
T1 sequence: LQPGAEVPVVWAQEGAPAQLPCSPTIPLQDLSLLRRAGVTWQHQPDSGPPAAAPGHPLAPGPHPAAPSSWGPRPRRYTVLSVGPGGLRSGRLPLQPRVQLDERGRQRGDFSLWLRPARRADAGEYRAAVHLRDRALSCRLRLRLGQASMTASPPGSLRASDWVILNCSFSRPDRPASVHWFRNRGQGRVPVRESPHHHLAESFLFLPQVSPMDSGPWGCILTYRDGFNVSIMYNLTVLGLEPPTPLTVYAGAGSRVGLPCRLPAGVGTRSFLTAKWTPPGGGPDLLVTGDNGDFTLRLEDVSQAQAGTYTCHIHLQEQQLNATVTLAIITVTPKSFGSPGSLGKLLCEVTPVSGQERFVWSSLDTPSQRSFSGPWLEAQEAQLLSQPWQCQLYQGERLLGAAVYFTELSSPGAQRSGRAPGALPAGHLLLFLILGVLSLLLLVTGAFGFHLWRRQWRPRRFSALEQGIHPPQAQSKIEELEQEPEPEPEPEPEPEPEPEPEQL
Test: flow cytometry on human LAG-3-expressing 293T-lacZ cells
Procedure: The flow cytometry was performed according to the method described in Example 1)-4, but an Anti-Human IgG PE conjugate (manufactured by Jackson ImmunoResearch Laboratories, Inc.) diluted 200-fold with a FACS buffer was used as the secondary antibody.

B1: humanized anti-human LAG-3 antibody hLA212_H4/L2 (antibody, human IgG1, kappa, V domains shown)
VH: EVQLVESGGGLVQPGGSLRLSCAASGFTYRSYVMAWVRQAPGKGLEWVASISTGGGNTYYRDSVKGRFTISRDNAKNTLYLQMDSLRAEDTAVYYCAEDMSNSGYGLFDYWGQGTLVTVSS
VL: DIQMTQSPSSLSASVGDRVTITCKAGQNVDNNIAWYQQKPGQSPKLLIYYASNRNTGVPSRFSGSGYGTDFTLTISSLQPEDFATYYCQRISNSPYTFGQGTKVEIKR
modifications: defucosylated (sugar chain modification adjusted); peaks of fucose-containing H chain at or below the detection limit in mass spectrometry
notes: defucosylated form (human IgG1/kappa); also called hLA212 antibody H4/L2; low fucose form of hLA212_H3/L2
  binding result: binds
